The record followed here is IntAct's records for PubMed 23222540.

The target of the assay is ogt1_human OGT (UniProt O15294).
Chain of UniProt O15294 (O15294 whole entry): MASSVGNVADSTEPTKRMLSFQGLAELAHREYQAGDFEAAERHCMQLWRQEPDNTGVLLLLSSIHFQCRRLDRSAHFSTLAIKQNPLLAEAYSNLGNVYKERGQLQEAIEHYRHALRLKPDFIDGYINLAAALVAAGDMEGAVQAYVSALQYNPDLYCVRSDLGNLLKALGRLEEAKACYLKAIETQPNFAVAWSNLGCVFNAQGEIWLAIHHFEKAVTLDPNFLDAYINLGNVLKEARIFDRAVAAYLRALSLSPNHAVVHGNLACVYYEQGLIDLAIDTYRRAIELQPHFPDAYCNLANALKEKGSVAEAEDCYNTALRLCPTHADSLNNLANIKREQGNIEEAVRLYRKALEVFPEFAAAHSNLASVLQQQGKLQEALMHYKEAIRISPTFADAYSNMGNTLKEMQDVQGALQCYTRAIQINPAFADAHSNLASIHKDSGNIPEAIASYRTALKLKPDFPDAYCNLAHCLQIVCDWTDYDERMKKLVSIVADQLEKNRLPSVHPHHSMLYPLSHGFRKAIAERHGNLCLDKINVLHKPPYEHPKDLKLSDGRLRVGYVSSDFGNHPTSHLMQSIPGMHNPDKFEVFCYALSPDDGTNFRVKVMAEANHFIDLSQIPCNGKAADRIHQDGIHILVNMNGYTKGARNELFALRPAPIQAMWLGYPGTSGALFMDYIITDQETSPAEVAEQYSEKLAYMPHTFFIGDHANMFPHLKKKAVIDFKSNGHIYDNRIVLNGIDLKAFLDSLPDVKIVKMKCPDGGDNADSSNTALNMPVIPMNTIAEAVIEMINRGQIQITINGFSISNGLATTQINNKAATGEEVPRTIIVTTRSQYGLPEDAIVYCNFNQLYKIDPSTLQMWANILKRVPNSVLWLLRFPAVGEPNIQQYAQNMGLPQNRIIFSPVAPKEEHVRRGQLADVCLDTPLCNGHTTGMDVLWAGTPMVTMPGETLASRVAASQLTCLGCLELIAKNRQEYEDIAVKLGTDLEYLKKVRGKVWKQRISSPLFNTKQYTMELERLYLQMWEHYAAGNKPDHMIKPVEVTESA

Regarding “Methylcytosine dioxygenase TET2 (Homo sapiens), Q6N021-1 H1382Y;D1384A”, the “effect of a mutation on the interaction” value is given as “with no effect”.
